Source: patent US11419921B2, “Methods of treating neurological disorders” (EnClear Therapies, Inc., priority 2018, dated 2022)

Assays:
(GR)10 [1] = assay: (GR)10 digestion with immobilized proteases (NHS-activated agarose resin) in PBS; format: biochemical; details: normalized
Procedure: (§1) Protease solutions were prepared at 2 mg/mL in sterile PBS with calcium, magnesium and 200 μL ([…]) were applied to 100 μL of pre-washed NHS-activated agarose resin in 0.8 mL centrifuge columns. Reactions were left 1.5 hour at room temperature with end-to-end mixing, after which resins were washed with 12 resin volumes of PBS. Unreacted sites were blocked with 500 μL of 1M ethanolamine for 15 minutes at room temperature and resins were further washed with 24 resin volumes. Resins were stored at 4 degrees in 500 μL of PBS containing 0.05% sodium azide as preservative.
110 μL of 50 μM (GR)10 dipeptide repeats prepared in PBS were added to each immobilized protease and incubated 5 minutes at room temperature with end-to-end mixing. Columns were spun down 1 minute at 1,000 Xg to recover digested GR dipeptides. Columns were washed with 110 μL of PBS to increase (GR)10 recovery. This procedure was repeated with 60 minutes digestion time. 100 μL of each samples were transferred to a new tube and 5 μL of 10% TFA followed by 300 μL of Dilution Solution were added. The reaction mixtures were analyzed by LC/MS to determine the concentration of GR repeats of different lengths.

(GR)10 [2] = assay: (GR)10 digestion with immobilized proteases in human cerebrospinal fluid (CSF); format: biochemical; details: immobilized enzyme
Procedure: as §1
200 μM of (GR)10 were diluted in human cerebrospinal fluid (CSF) and 400 μL were applied to each immobilized proteases. The reaction was incubated 5 minutes at room temperature with end-to-end mixing. Columns were spun down 1 minute at 1,000 Xg to recover digested GR dipeptides. Columns were washed with 12 resin volumes of PBS. The procedure was repeated with 60 minutes digestion time. 100 μL of each samples were transferred to a clean tube, flash-frozen and subsequently used for LC/MS quantification of GR repeats of different lengths. The remaining 300 μL of each samples were flash-frozen and used to assess neuron toxicity.
(GR)10 was digested with exemplary immobilized enzymes as described above in the subsection titled “(GR)10 digestion with immobilized proteases in CSF” of Example 3. Clostripain experiments were conducted with and without DTT activation (no DTT during digestion). The results obtained after 5 and 60 minutes of reaction time are presented in Table 25 and shown in FIG. 5 (commercial and in-house immobilized trypsin), FIG. 6 (immobilized elastase, FIG. 7A (immobilized clostripain without DTT) and FIG. 7 (immobilized clostripain with 2.5 mM DTT).

[3] = resin wash from 60 min reaction

B1: Clostripain: sulfhydryl protease cleaving at the C-terminus of arginine residues; in Table 23 also immobilized on agarose resin (protein)
chain: NKNQKVTIMYYCDADNNLEGSLLNDIEEMKTGYKDSPNLNLIALVDRSPRYSSDEKVLGEDFSDTRLYKIEHNKANRLDGKNEFPEISTTSKYEANMGDPEVLKKFIDYCKSNYEADKYVLIMANHGGGAREKSNPRLNRAICWDDSNLDKNGEADCLYMGEISDHLTEKQSVDLLAFDACLMGTAEVAYQYRPGNGGFSADTLVASSPVVWGPGFKYDKIFDRIKAGGGTNNEDDLTLGGKEQNFDPATITNEQLGALFVEEQRDSTHANGRYDQHLSFYDLKKAESVKRAIDNLAVNLSNENKKSEIEKLRGSGIHTDLMHYFDEYSEGEWVEYPYFDVYDLCEKINKSENFSSKTKDLASNAMNKLNEMIVYSFGDPSNNFKEGKNGLSIFLPNGDKKYSTYYTSTKIPHWTMQSWYNSIDTVKYGLNPYGKLSWCKDGQDPEINKVGNWFELLDSWFDKTNDVTGGVNHYQW
(GR)1 ((GR)10 [1]; Immobilized - 5 min reaction): 296.5 µM
(GR)2 ((GR)10 [1]; Immobilized - 5 min reaction): 0.0 µM
(GR)3 ((GR)10 [1]; Immobilized - 5 min reaction): 0.0 µM
(GR)4 ((GR)10 [1]; Immobilized - 5 min reaction): 0.0 µM
(GR)5 ((GR)10 [1]; Immobilized - 5 min reaction): 0.0 µM
(GR)6 ((GR)10 [1]; Immobilized - 5 min reaction): 0.0 µM
(GR)8 ((GR)10 [1]; Immobilized - 5 min reaction): 0.0 µM
(GR)10 ((GR)10 [1]; Immobilized - 5 min reaction): 0.0 µM
(GR)1 ((GR)10 [1]; immobilized - 60 min reaction): 305.9 µM
(GR)2 ((GR)10 [1]; immobilized - 60 min reaction): 0.0 µM
(GR)3 ((GR)10 [1]; immobilized - 60 min reaction): 0.0 µM
(GR)4 ((GR)10 [1]; immobilized - 60 min reaction): 0.0 µM
(GR)5 ((GR)10 [1]; immobilized - 60 min reaction): 0.0 µM
(GR)6 ((GR)10 [1]; immobilized - 60 min reaction): 0.0 µM
(GR)8 ((GR)10 [1]; immobilized - 60 min reaction): 0.0 µM
(GR)10 ((GR)10 [1]; immobilized - 60 min reaction): 0.0 µM
(GR)1 ((GR)10 [1]; resin wash from 5 min reaction): 140.2 µM
(GR)2 ((GR)10 [1]; resin wash from 5 min reaction): 0.0 µM
(GR)3 ((GR)10 [1]; resin wash from 5 min reaction): 0.0 µM
(GR)4 ((GR)10 [1]; resin wash from 5 min reaction): 0.0 µM
(GR)5 ((GR)10 [1]; resin wash from 5 min reaction): 0.0 µM
(GR)6 ((GR)10 [1]; resin wash from 5 min reaction): 0.0 µM
(GR)8 ((GR)10 [1]; resin wash from 5 min reaction): 0.0 µM
(GR)10 ((GR)10 [1]; resin wash from 5 min reaction): 0.0 µM
(GR)1 ((GR)10 [1]; [3]): 155.8 µM
(GR)2 ((GR)10 [1]; [3]): 0.0 µM
(GR)3 ((GR)10 [1]; [3]): 0.0 µM
(GR)4 ((GR)10 [1]; [3]): 0.0 µM
(GR)5 ((GR)10 [1]; [3]): 0.0 µM
(GR)6 ((GR)10 [1]; [3]): 0.0 µM
(GR)8 ((GR)10 [1]; [3]): 0.0 µM
(GR)10 ((GR)10 [1]; [3]): 0.0 µM
(GR)1 (normalized uM) ((GR)10 [2]; 5 min reaction): 11.2 µM
(GR)2 (normalized uM) ((GR)10 [2]; 5 min reaction): 10.0 µM
(GR)3 (normalized uM) ((GR)10 [2]; 5 min reaction): 0.0 µM
(GR)4 (normalized uM) ((GR)10 [2]; 5 min reaction): 0.0 µM
(GR)5 (normalized uM) ((GR)10 [2]; 5 min reaction): 8.5 µM
(GR)6 (normalized uM) ((GR)10 [2]; 5 min reaction): 0.0 µM
(GR)8 (normalized uM) ((GR)10 [2]; 5 min reaction): 0.0 µM
(GR)10 (normalized uM) ((GR)10 [2]; 5 min reaction): 395 µM
(GR)1 (normalized uM) ((GR)10 [2]; 60 min reaction): 106.2 µM
(GR)2 (normalized uM) ((GR)10 [2]; 60 min reaction): 99.2 µM
(GR)3 (normalized uM) ((GR)10 [2]; 60 min reaction): 72.3 µM
(GR)4 (normalized uM) ((GR)10 [2]; 60 min reaction): 84.7 µM
(GR)5 (normalized uM) ((GR)10 [2]; 60 min reaction): 85.5 µM
(GR)6 (normalized uM) ((GR)10 [2]; 60 min reaction): 87 µM
(GR)8 (normalized uM) ((GR)10 [2]; 60 min reaction): 58.4 µM
(GR)10 (normalized uM) ((GR)10 [2]; 60 min reaction): 0 µM

B2: Trypsin: protease cleaving at the carboxyl side of lysine or arginine; in Table 21 also immobilized in-house on NHS-activated agarose resin (protein, UniProt P00760 24-246, looked up)
Serine protease 1: IVGGYTCGANTVPYQVSLNSGYHFCGGSLINSQWVVSAAHCYKSGIQVRLGEDNINVVEGNEQFISASKSIVHPSYNSNTLNNDIMLIKLKSAASLNSRVASISLPTSCASAGTQCLISGWGNTKSSGTSYPDVLKCLKAPILSDSSCKSAYPGQITSNMFCAGYLEGGKDSCQGDSGGPVVCSGKLQGIVSWGSGCAQKNKPGVYTKVCNYVSWIKQTIASN
(GR)1 ((GR)10 [1]; Immobilized - 5 min reaction): 308.8 µM
(GR)2 ((GR)10 [1]; Immobilized - 5 min reaction): 0.0 µM
(GR)3 ((GR)10 [1]; Immobilized - 5 min reaction): 0.0 µM
(GR)4 ((GR)10 [1]; Immobilized - 5 min reaction): 0.0 µM
(GR)5 ((GR)10 [1]; Immobilized - 5 min reaction): 0.0 µM
(GR)6 ((GR)10 [1]; Immobilized - 5 min reaction): 0.0 µM
(GR)8 ((GR)10 [1]; Immobilized - 5 min reaction): 0.0 µM
(GR)10 ((GR)10 [1]; Immobilized - 5 min reaction): 0.0 µM
(GR)1 ((GR)10 [1]; immobilized - 60 min reaction): 321.8 µM
(GR)2 ((GR)10 [1]; immobilized - 60 min reaction): 0.0 µM
(GR)3 ((GR)10 [1]; immobilized - 60 min reaction): 0.0 µM
(GR)4 ((GR)10 [1]; immobilized - 60 min reaction): 0.0 µM
(GR)5 ((GR)10 [1]; immobilized - 60 min reaction): 0.0 µM
(GR)6 ((GR)10 [1]; immobilized - 60 min reaction): 0.0 µM
(GR)8 ((GR)10 [1]; immobilized - 60 min reaction): 0.0 µM
(GR)10 ((GR)10 [1]; immobilized - 60 min reaction): 0.0 µM
(GR)1 ((GR)10 [1]; resin wash from 5 min reaction): 140.2 µM
(GR)2 ((GR)10 [1]; resin wash from 5 min reaction): 0.0 µM
(GR)3 ((GR)10 [1]; resin wash from 5 min reaction): 0.0 µM
(GR)4 ((GR)10 [1]; resin wash from 5 min reaction): 0.0 µM
(GR)5 ((GR)10 [1]; resin wash from 5 min reaction): 0.0 µM
(GR)6 ((GR)10 [1]; resin wash from 5 min reaction): 0.0 µM
(GR)8 ((GR)10 [1]; resin wash from 5 min reaction): 0.0 µM
(GR)10 ((GR)10 [1]; resin wash from 5 min reaction): 6.6 µM
(GR)1 ((GR)10 [1]; [3]): 144.6 µM
(GR)2 ((GR)10 [1]; [3]): 0.0 µM
(GR)3 ((GR)10 [1]; [3]): 0.0 µM
(GR)4 ((GR)10 [1]; [3]): 0.0 µM
(GR)5 ((GR)10 [1]; [3]): 0.0 µM
(GR)6 ((GR)10 [1]; [3]): 0.0 µM
(GR)8 ((GR)10 [1]; [3]): 0.0 µM
(GR)10 ((GR)10 [1]; [3]): 0.0 µM
(GR)1 (normalized uM) ((GR)10 [2]; 5 min reaction): 1153.4 µM
(GR)2 (normalized uM) ((GR)10 [2]; 5 min reaction): 9.0 µM
(GR)3 (normalized uM) ((GR)10 [2]; 5 min reaction): 0.0 µM
(GR)4 (normalized uM) ((GR)10 [2]; 5 min reaction): 0.0 µM
(GR)5 (normalized uM) ((GR)10 [2]; 5 min reaction): 0.0 µM
(GR)6 (normalized uM) ((GR)10 [2]; 5 min reaction): 0.0 µM
(GR)8 (normalized uM) ((GR)10 [2]; 5 min reaction): 0.0 µM
(GR)10 (normalized uM) ((GR)10 [2]; 5 min reaction): 0.0 µM
(GR)1 (normalized uM) ((GR)10 [2]; 60 min reaction): 1182.3 µM
(GR)2 (normalized uM) ((GR)10 [2]; 60 min reaction): 0.0 µM
(GR)3 (normalized uM) ((GR)10 [2]; 60 min reaction): 0.0 µM
(GR)4 (normalized uM) ((GR)10 [2]; 60 min reaction): 0.0 µM
(GR)5 (normalized uM) ((GR)10 [2]; 60 min reaction): 0.0 µM
(GR)6 (normalized uM) ((GR)10 [2]; 60 min reaction): 0.0 µM
(GR)8 (normalized uM) ((GR)10 [2]; 60 min reaction): 0.0 µM
(GR)10 (normalized uM) ((GR)10 [2]; 60 min reaction): 0.0 µM
